Measured values from PMC9283540.

How the values were obtained:
[1] = biological target: TipsytheTRex immunity repressor (WT of study stock) (Mycobacteriophage TipsytheTRex (cluster A)) (UniProt A0A2D1GKF7); experiment: EMSA; conditions: 0.25 uM labeled DNA; EMSA: 20 mM Tris pH 7.0, 25 mM NaCl, 1 mM DTT, 100 ug/mL BSA, 5% glycerol, 0.25 uM FAM-DNA, room temperature 30 min, 5% native gel in 1x TAE
[2] = biological target: TipsytheTRex repressor D104A (Mycobacteriophage TipsytheTRex (cluster A)) (UniProt A0A2D1GKF7); experiment: EMSA; conditions: 0.25 uM labeled DNA; ~3.5-fold weaker than WT; EMSA: 20 mM Tris pH 7.0, 25 mM NaCl, 1 mM DTT, 100 ug/mL BSA, 5% glycerol, 0.25 uM FAM-DNA, room temperature 30 min, 5% native gel in 1x TAE

“ACGGCCCGCTTGACAGCCACCGAAACATCC (double strand) [30-bp optimal]” was tested, and the Kd [1] was 59 nM and the Kd [2] was 207 nM.
